The series has as its target T1, His6-MBNL1 (human, UniProt Q9NR56-5 1-382).
T1 sequence: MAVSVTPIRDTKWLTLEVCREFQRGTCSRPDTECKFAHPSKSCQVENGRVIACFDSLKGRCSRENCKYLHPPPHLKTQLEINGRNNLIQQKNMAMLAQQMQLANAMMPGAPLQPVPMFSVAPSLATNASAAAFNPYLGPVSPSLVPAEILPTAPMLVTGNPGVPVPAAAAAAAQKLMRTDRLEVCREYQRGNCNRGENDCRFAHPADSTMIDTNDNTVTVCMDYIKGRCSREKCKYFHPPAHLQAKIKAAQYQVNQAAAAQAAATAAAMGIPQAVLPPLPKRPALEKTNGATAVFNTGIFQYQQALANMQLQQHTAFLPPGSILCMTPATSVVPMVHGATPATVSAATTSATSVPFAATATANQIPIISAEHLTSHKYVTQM
Kind of series: EMSA.

B1: DOWN (ssRNA)
RNA: GUAUGACUCACCUGUGCGACCCCUGGUGCCUGCUCCGCGCAGGGCCGGCGGCGUGCCAGGCAGAUGCCUCGGAGAACCCAGGGGUUUCUGUGGCUUUUUGCAUGCGGCGGGCAGCUGUGCUGGAGAGCAGAUGCUUCACCAAUUCAGAAAUCCAAUGCCUUCACUCUGAAAUGAAAUCUGGGCAU
For B1, the binding result is given as “binds”.

The values are drawn from PMC3074124.
